Our source for the protein production values is a protein production outcome set (Wang et al. 2014).

The nature of this data set: label from the status in PepcDB records.
On to “SLQCIFLISDSGEVMLEKQLTGHRVDRSICAWFWDQYISQGDSFKALPVIASPTHYLFQIVRDGITFLACSQVEMPPLMAIEFLCRVADVLSEYLGGLNEDLIKDNFIIVYELLDEMIDNGFPLTTEPSILKEMIAPPNLVSKMLSVVTGNASNVSDTLPSGAGSCVPWRPTDPKYSSNEVYVDLVEEMDAIVNRDGELVKCEIYGEVQMNSQLTGFPDLTLSFANPSILEDMRFHPCVRYRPWESHQVLSFVPPDGEFKLMSYRVKKLKNTPVYVKPQITSDSGTCRISVLVGIRSDPGKTIESITLSFQLPHCVSSADLSSNHGTVTILSNKTCTWTIGRIPKDKTPCLSGTLALEPGLERLHVFPTFKLGFKIMGIALSGLRIEKLDLQTIPPRLYKGFRAQTRTGEFDVRL”, for which the protein production result is “failed”.
As for “SLRADKPKCSIQNFFIPALGKDPNSRDNTTLNFMVRCDNPNKDKGIYYDDVHLNFSTINTTKINSSALVLVGNYTVPKFYQGHKKKAKKWGQVKPLNNQTVLRAVLPNGSAVFRLDLKTQVRFKIVFWKTKRYGVEVGADVEVNGDGVKAQKKGIKMKKS”, the entry is “not failed”; as for “SLRREMQEILPGLFLGPYSSAMKSKLPVLQKHGITHIICIRQNIEANFIKPNFQQLFRYLVLDIADNPVENIIRFFPMTKEFIDGSLQMGGKVLVHGNAGISRSAAFVIAYIMETFGMKYRDAFAYVQERRFCINPNAGFVHQLQEYEAIYLAK”, “not failed”; as for “SLRSMVSDSVDEIVDGVSKTTAEVINGRKSIAQYATSLIENNPEPDNVRTIISQPLIKNTFLLVGFGLEKDGSNINNDPSWNPGPTWDPRVRPWYKDAKNAGKLVITAPYADSASGEILVSVATPVKDSATGQFLGSIFYDVSLAELAELVNEVKLFDAGYVFIVSEDGTTIAHPKKEFNGKPMSEFLGESKINVDTHQVIINGKPYAVSFSDVEGEDWYVGVVIDEEIAYAALDELRRS”, “not failed”.
As for “SLSPAELHADSIVIDGLIIAKWNRELFEDMRKGGLTAANCTVSVWEGFQATVNNIVASNKLIRDNSDLVIPVRSTADIRKAKEQGKTGILYGFQNAHAFEDQIGYVEVFKQLGVGIVQMCYNTQNLVGTGCYERDGGLSGFGREIVAEMNRVGIMCDLSHVGSKTSEEVILESKKPVCYSHCLPSGLKEHPRNKSDEELKFIADHGGFVGVTMFAPFLKKGIDSTIDDYAEAIEYVMNIVGEDAIGIGTDFTQGHGHDFFEWLTHDKGYARRLTNFGKIVNPLGIRTVGEFPNLTETLLKRGMPERVVRKVMGENWVRVLRDVWGE”, the protein production result is listed as “not failed”.
Under “SLSRRKPNPVIVADIRQAEGALAEIATIDRKVGEIEAQMNEAIDAAKARASQKSAPLLARRKELEDGVATFATLNKTEMFKDRKSLDLGFGTIGFRLSTQIVQMSKITKDMTLERLRQFGISEGIRIKEDVNKEAMQGWPDERLEMVGLKRRTTDAFYIEINREEVADTAA” stands “not failed”; under “SLSTVNIKSTGVTSTELAEIGEHQSEMPGVKVGTSWTRSYPNGTDLSSVLGTVTTEKQGLPSDSIKTLLAEGYSRDDSVGQSQLEKQYENVLRGTKSQTEVKTQDGVIQKEIKKYGGQKGDNVQLTIN”, “failed”; under “SNSIGLRQSVSDKGIEIVNLLAPKVEMLGFDLLGAEYLLVPSGAILRLYIDIPFAMQPECMVSIDDCERVSREVSAYLDLEEPISGNYTLEVSSP”, “failed”.
For the sequence “SPESLYLLWGPQMQFFFNDAYRPVLGPRLANALGQTIQTLWADAWPDVQPMVEQAFLGYSCRHEDLPVNMQRYPGEELTWWSFSMSPVYDEDDEQVLGVLCHTVETTDRVLLARHARQTEAH”, the protein production entry was “failed”.
Under “SPFIRANTAWLGHLEFAYDLVRFEKPEILVELGTHMGASFFSFCQGVKDGGLATKCFAVDTWTGDGHTGPYGEGVFHIVDKVVKTSYPNIGNLIKSTFDEAVDQFQDGTINLLHIDGYHTYEAVSHDYKTWLPKLADNGIVLFHDIEVKDRNFGVYKFWDEVKAKYPHFQFQHSYGLGVLFPKGCSDRFKEILKNKEEIQDMYK” stands “failed”; under “SRSKQKSRRRCFQCQTKLELVQQELGSCRCGYVFCMLHRLPEQHDCTFDHMGRG”, “not failed”; under “SSAEAGGGIRKRHRTKFTAEQKERMLALAERIGWRIQRQDDEVIQRFCQETGVPRQVLKVWLHNNKH”, “not failed”.
“SSDASKVTSKGAGLSKAFVGQKSSFLVDCSKAGSNMLLIGVHGPTTPCEEVSMKHVGNQQYNVTYVVKERGDYVLAVKWGEEHIPGSPFHVTVP”: the protein production result is recorded as “not failed”.
As for “SSGNHIFKGRAAGIAVNENGKGLITENVIRENQWGGVDIRRGGIPVLRSNLICFGYSDGVVVGDEGKGLIEGNTIYANKGCGVWMMSSSLPHVTSNHVSYNGLYGVAVFSQKDGSSELPRGHRAQENFSEDGDAILWETELEKEDDPLRRPITIALVESNSINHNGASGLYVQSSEALHVITNVIHANGDRGITVAQSSQPTRVANNSISCNRQSGVKVEAQCKVELRGNGIYDNRGHGIITKGDSTIVIENDIIGNRGSGLQLLPRSDTKVIKNRIHSFRAYGIAVRGRAKALVQENIIFQGKTSKTIFQQISNNRECIMQNNKFLVFKKKSDTWR”, the entry is “not failed”; as for “SSISRANKKKPSMPNVSNDLSQKLYATMEKHKEVFFVIHLHAGPVINTLPPIVDPDPLLSCDLMDGRDAFLTLARDKHWEFSSLRRSKWSTLCMLVELHTQ”, “failed”; as for “SSLLDGLASSPRAPLQSSKARMKKLPKKSQNEKYRLKYLRLRKAAKATVFENAAICDEIARLEEKFLKAKEERRYLLKKLLQLQALTEGEVQAAAPSHSSSLPLTYGVASSVGTIQGAGPISGPSTGAEEPFGKKTKKEKKEKGKENNKLEVLKKTCKKKKMAGGARKLVQPIALDPSGRPVFPIGLGGLTVYSLGEIITDRPGFHDESAIYPVGYCSTRIYASMKCPDQKCLYTCQIKDGGVQPQFEIVPEDDPQNAIVSSSADACHAELLRTISTTMGKLMPNLLPAGADFFGFSHPAIHNLIQSCPGARKCINYQWVKFDVCKPGDGQLPEGLPENDAAMSFEAFQRQIFDEDQNDPLLPGSLDLPELQPAAFVSSYQPMYLTHEPLVDTHLQHLKSPSQGSPIQSSD”, “not failed”.
Regarding “SSQGFIFNLSRPMFQDRRVRQALSLLWDFEWTNRQMMRNMYIRQDSYFSNSELAASQLPTPAELKILEPLRGTVPKEVFDTVFKTPKTDGTGLIRDKQLQALALMKEAGWTPKGDELVNAQGEPFSFTFLNAQSGFERMLLPYKRTLAQIGIHFDIRRIDSAQYLNRVMARDYDMIVTGYPVSTSPGAELYNSFGSKVAMDPGSSNYMALQDPAVDTLIAGLVKADNKQTMTDYAHCLDRVLQWNYYWIPNYYPP”, the protein production result is “failed”.
Regarding “SSQRYMQILQIMPEAIFIHDNGKCNFINDKAIKLLEVKDVKDIIGKNIVDFIHEDYKELAQARIDKTMKTGMPCDFIEERLVTAMGKKIIIEAATTTFSHNNGTFITIIRDMT”, the protein production result is “failed”.
As for “STTTTTKKPHVLVIPFPQSGHMVPHLDLTHQILLRGATVTVLVTPKNSSYLDALRSLHSPEHFKTLILPFPSHPCIPSGVESLQQLPLEAIVHMFDALSRLHDPLVDFLSRQPPSDLPDAILGSSFLSPWINKVADAFSIKSISFLPINAHSISVMWAQEDRSFFNDLETATTESYGLVINSFYDLEPEFVETVKTRFLNHHRIWTVGPLLPFKAGVDRGGQSSIPPAKVSAWLDSCPEDNSVVYVGFGSQIRLTAEQTAALAAALEKSSVRFIWAVRDAAKKVNSSDNSVEEDVIPAGFEERVKEKGLVIRGWAPQTMILEHRAVGSYLTHLGWGSVLEGMVGGVMLLAWPMQADHFFNTTLIVDKLRAAVRVGENRDSVPDSDKLARILAESAREDLPERVTLMKLREKAMEAIKEGGSSYKNLDELVAEMCL”, the entry is “failed”; as for “SVATQHLFARQKNTQLTLHVAHSFCSQWLMPRLADFHRQHPDVVVKISTTANTVPNASAIADVEIINGYGDWQSEQAVQLTQEN”, “failed”; as for “SVDDDLYFIPKKKAEKKEEVKQEVKVVVPQKQNTTTVYAAPGSTVVVKDVKGKVRDVDEYNRRYTSRDNNFSMENDTLYIEEKPLNERGEWVNGFEGSQDDYEYAMRIVRFRNPRYAIPVSSPLYWDVVYGLPSWDWNVYDDGLYAYVFPTYTNRLWWDWRWNYPYGASWGFSWGWSSPWYYNSWYYPGYWGGGYWGGYWGYHHHHHHHYYPHYSGHGWGGGYWGGGHGWYGSSRRNPGIHAGRYTNSYGSSRPSRNNYVNSYDRNSRNSYVGNSRQNVRNSANSYRTATRNGSSSGRVVSGSDGVNSVRPNRSAIRTRTGATLSPSQAAGVRPGNSYSRPTEGRGSSYTRPSS”, “failed”.
Under “SVFPQQTGQLAELQPQDRAGARASWMPMFQRRRRRDTHFPICIFCCGCCHRSKCGMCCKT” stands “failed”; under “SVPKRQRIRKLQIRNIPPHLQWEVLDSLLVQYGVVESCEQVNTDSETAVVNVTYSSKDQARQALDKLNGFQLENFTLKVAYIPDEMAAQ”, “not failed”.
As for “SWNQAPKLHYCLDYDCQKAELFVTRLEAVTSNHDGGCDCYVQGSVANRTGSVEAQTALKKRQLHTTWEEGLVLPLAEEELPTATLTLTLRTCDRFSRHSVAGELRLGLDGTSVPLGAAQWGELKT”, the entry is “not failed”.
In the case of “SWSDLFRKCTTDEEQEMLQFLIDNKDSEILRAFVSERSILLHEEYLKWESYMTRRAKFHRLAADFAMFLSILTSLIVIFCLVYSMYQLFKTPDEHSAYDPSTRPKPKTQEVKTLKIRTE”, the protein production entry is “not failed”.
“SYLPKHESVTLKNGLQVVSVPLENKTGVIEVDVLYKVGSRNETMGKSGIAHMLEHLNFKSTKNLKAGEFDKIVKRFGGVSNASTSFDITRYFIKTSQANLDKSLELFAETMGSLNLKEDEFLPERQVVAEERRWRTDNSPIGMLYFRFFNTAYVYHPYHWTPIGFMDDIQNWTLKDIKKFHSLYYQPKNAIVLVVGDVNSQKVFELSKKHFESLKN”: the protein production entry is given as “failed”.
As for “SYNYNIKRRIAEKAAELVQDNDTIMIESGSTCALLAEVLCQTKRNIKVITNSCFIANYIRQYSSCQIILLGGYYQPNSEVTVGPLLKEMISLFHVNRVFVGTDGFNKDLGFMGKDMMRSEGVRYMADAAEEVVILTDSSKFSKTSLVHQLSLADVNRVITDQALDKQTQELLSASGLVLDFVS”, the entry is “failed”.
Under “SYVQDYRSPFIASVSDQHGVVYITENKNKTVVIPCLGSISNLNVSLCARYPEKRFVPDGNRISWDSKKGFTIPSYMISYAGMVFCEAKINDESYQSIMYIVVVVGYRIYDVVLSPSHGIELSVGEKLVLNCTARTELNVGIDFNWEYPSSKHQHKKLVNRDLKTQSGSEMKKFLSTLTIDGVTRSDQGLYTCAASSGLMTKKNSTFVRVHEKPFVAFGSG” stands “not failed”; under “TAMRVSPHHPAPTPNPRASLNHSTAFNPQPQSQMQDTRQIQPSPPWSYDQSYQYLGSIASPSVHPATPISPGRASGMTTLSAELSSRLSTAPDLTAFSDPRQFPALPSISDP”, “failed”.
“TDSTGIDLHEFLVNTLKKNPRDRMMLLKLEQEILEFINDNNNQFKKFPQMTSYHRMLLHRVAAYFGMDHNVDQTGKAVIINKTSNTRIPEQRFSEHIKDEKNTEFQQRFIL”: the protein production result was “not failed”.
